Data as given in CN101415728A (dated 2009).

B1: M14-G11.G4.P (antibody, human IgG4, V domains shown, not shown: a dimerising Fc or GST)
VH: EVQLLESGGGLVQPGGSLRLSCAASGFTFSNYPMYWVRQAPGKGLEWVSRISSSGGRTVYADSVKGRFTISRDNSKNTLYLQMNSLRAEDTAVYYCARDRWSRSAAEYGLGGYWGQGTLVTVSS
VL: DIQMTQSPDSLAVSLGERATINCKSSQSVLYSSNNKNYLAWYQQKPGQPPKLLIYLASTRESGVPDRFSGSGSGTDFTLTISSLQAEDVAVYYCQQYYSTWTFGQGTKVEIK
B2: M13-C06 Fab (Fab, V domains shown)
VH: EVQLLESGGGLVQPGGSLRLSCAASGFTFSIYRMQWVRQAPGKGLEWVSGISPSGGTTWYADSVKGRFTISRDNSKNTLYLQMNSLRAEDTAVYYCARWSGGSGYAFDIWGQGTMVTVSS
VL: DIQMTQSPLSLSASVGDRVTITCQASRDIRNYLNWYQQKPGKAPKLLIYDASSLQTGVPSRFGGSGSGTDFSFTIGSLQPEDIATYYCQQFDSLPHTFGQGTKLEIK
notes: Human Fab from a phage library (VH3-23 germline framework, kappa light chain)
B3: M13-C06 antibody (full-length, IgG4 version not stated) (antibody, V domains shown)
VH: B2 VH
VL: B2 VL
notes: Fully human full-length antibody; In tr-FRET it carried a europium chelate (10.3:1 Eu:C06); also called M13-C06_Ab; Eu-C06
B4: M12-E01 Fab (Fab, V domains shown)
VH: EVQLLESGGGLVQPGGSLRLSCAASGFTFSPYSMLWVRQAPGKGLEWVSSIGSSGGSTRYADSVKGRFTISRDNSKNTLYLQMNSLRAEDTAMYYCARVRGILHYDILIGRNLYYYYMDVWGKGTTVTVSS
VL: QYELTQPPSVSEAPRQRVTISCSGSSSNIGNNAINWYQQLPGKPPKLLIYYDDLLPSGVSDRFSGSKSGTSGSLAISGLQSEDEADYYCAAWDDNLNGVIFGGGTKLTVL
notes: Human Fab from a phage library (VH3-23, lambda light chain)
B5: 小鼠IGF-1R(1-903)-Fc (Fc fusion)
chain: not shown
notes: range 1-903; also called mIGF-1R-Fc; mIGF1R; not shown: C-terminal human IgG1-Fc tag
B6: M14-B01 Fab (Fab, V domains shown)
VH: EVQLLESGGGLVQPGGSLRLSCAASGFTFSNYHMAWVRQAPGKGLEWVSVISPTGGRTTYADSVKGRFTISRDNSKNTLYLQMNSLRAEDTATYYCARAGYSYGYGYFDYWGQGTLVTVSS
VL: DIQMTQFPATLSVSPGERATLSCRASQSVMRNLAWYQQKPGQPPRLLIYGASKRATGIPARFSGSGSGTAFTLTISNLEPEDFAVYYCHQRSTWPLGTFGPGTKLEAK
notes: Human Fab from a phage library (VH3-23, kappa)

Assays:
[1] = biological target: human IGF-1R expressed on cells (human); assay: cell-based or functional assay
人INSR(28-956)-His 10 [2] = biological target: T1, 人INSR(28-956)-His 10 (human, UniProt P06213 28-956); assay: ELISA on plates coated with rh-INSR
T1 construct: range 28-956; Bought from R&D Systems; also called INSR-His 10; rh-INSR (R&D Systems #1544-IR)

小鼠IGF-1R(1-903)-Fc [3] = biological target: B5; assay: SPR, compared with hIGF-1R-Fc
小鼠IGF-1R(1-903)-Fc [4] = biological target: B5; assay: SPR, second run with 3 h dissociation
小鼠IGF-1R(1-903)-Fc [5] = biological target: B5; assay: SPR, receptor-Fc captured by anti-human IgG-Fc, Fab injected, 1:1 model
小鼠IGF-1R(1-903)-Fc [6] = biological target: B5; assay: SPR, receptor-Fc captured by anti-human IgG-Fc, Fab injected, 1:1 model (also printed as 89.1nM)
人INSR(28-956)-His 10 [7] = biological target: T1, 人INSR(28-956)-His 10; assay: tr-FRET competition (Eu-C06 / Cy5-hIGF-1R-His10)
[8] = biological target: B3; assay: tr-FRET competition against Cy5-IGF1R-His10 for Eu-C06

T1 sequence (P06213 other isoform, or with tags, fused parts or gaps limits assumed): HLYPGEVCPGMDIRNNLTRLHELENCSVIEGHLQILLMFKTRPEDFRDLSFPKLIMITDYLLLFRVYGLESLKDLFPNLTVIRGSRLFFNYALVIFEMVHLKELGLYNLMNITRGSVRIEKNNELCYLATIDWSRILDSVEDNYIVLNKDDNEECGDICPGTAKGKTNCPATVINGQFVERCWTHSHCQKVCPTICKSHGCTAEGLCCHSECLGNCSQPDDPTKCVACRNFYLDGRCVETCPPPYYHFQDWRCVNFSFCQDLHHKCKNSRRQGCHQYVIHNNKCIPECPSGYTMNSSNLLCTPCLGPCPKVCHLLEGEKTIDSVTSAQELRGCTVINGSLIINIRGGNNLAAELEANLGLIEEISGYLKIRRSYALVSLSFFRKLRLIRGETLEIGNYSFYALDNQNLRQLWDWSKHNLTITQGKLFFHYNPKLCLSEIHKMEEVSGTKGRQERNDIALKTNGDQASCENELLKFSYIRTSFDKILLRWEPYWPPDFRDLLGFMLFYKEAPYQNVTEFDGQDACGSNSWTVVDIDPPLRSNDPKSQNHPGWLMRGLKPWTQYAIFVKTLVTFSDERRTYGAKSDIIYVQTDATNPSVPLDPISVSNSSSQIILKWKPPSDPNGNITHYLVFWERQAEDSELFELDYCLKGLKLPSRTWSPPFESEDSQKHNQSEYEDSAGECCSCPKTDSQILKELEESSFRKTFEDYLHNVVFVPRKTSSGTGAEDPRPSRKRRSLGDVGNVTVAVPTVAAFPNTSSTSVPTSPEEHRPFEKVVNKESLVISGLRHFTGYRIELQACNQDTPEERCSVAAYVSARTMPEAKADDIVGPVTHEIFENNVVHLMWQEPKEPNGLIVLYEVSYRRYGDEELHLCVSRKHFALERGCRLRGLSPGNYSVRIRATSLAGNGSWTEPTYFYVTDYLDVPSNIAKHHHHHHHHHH
Chain of 小鼠IGF-1R(1-903)-Fc (Q60751 31-933 limits assumed): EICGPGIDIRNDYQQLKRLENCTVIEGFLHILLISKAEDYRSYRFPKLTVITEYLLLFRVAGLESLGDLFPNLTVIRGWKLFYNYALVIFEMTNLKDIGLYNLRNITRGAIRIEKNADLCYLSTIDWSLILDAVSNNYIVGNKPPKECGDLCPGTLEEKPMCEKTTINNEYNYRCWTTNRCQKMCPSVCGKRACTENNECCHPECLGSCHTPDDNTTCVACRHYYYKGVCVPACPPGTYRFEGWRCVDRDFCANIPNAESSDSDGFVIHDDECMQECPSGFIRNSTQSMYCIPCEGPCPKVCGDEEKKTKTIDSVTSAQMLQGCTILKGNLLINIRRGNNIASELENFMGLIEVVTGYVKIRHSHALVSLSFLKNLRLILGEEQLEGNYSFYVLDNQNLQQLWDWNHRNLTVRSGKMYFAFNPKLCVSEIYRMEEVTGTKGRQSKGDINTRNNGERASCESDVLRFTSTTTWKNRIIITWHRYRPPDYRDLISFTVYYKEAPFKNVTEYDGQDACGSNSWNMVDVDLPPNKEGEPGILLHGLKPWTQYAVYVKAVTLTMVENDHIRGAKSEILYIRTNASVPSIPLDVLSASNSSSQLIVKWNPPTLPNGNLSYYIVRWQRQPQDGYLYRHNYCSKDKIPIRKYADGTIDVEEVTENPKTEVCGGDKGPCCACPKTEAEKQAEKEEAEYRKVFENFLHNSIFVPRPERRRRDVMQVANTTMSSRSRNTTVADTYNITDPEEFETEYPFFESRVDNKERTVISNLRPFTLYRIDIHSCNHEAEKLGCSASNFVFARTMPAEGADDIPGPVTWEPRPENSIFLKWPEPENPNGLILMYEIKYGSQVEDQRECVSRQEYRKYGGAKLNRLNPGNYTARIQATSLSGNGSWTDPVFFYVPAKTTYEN

## B1
[1]
  inhibition of IGF-1- and IGF-2-mediated IGF-1R phosphorylation in MCF-7 cells, EC50: < 1 nM

## B2
人INSR(28-956)-His 10 [2]
  binding result: no binding (tested: 2μM)
小鼠IGF-1R(1-903)-Fc [3]
  fold decrease of binding against human IGF-1R: 100 fold
小鼠IGF-1R(1-903)-Fc [4]
  koff: 4.2e-05 s⁻¹
小鼠IGF-1R(1-903)-Fc [5]
  kon: 471 M⁻¹ s⁻¹
小鼠IGF-1R(1-903)-Fc [6]
  Kd: 89.1 nM

## B3
人INSR(28-956)-His 10 [7]
  binding result: no binding (tested: IC50以上100倍的浓度)

## B4
人INSR(28-956)-His 10 [2]
  binding result: no binding (tested: 2μM)

## B5
[8]
  IC50: > 100 µg/mL

## B6
人INSR(28-956)-His 10 [2]
  binding result: no binding (tested: 2μM)
